In the RNAGym collection of RNA variant scans (doi:10.1093/nar/gkz1192):

B1: CPEB3 Ribozyme (parent)
chain: UAACAGGGGGCCACAGCAGAAGCGUUCACGUCGCAGCCCCUGUCAGAUUCUGGUGAAUCUGCGAAUUCUGCUGUAUAUCUC

Variants of: B1
Test: self-cleavage, relative activity (ratio to wild type); higher = more cleavage; in vitro, sequencing
Summary of the method: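 After error-prone PCR and barcoding, CPEB3 ribozyme mutant libraries were transcribed with T7 RNA polymerase at 37°C for 5 hours, then given 15 min with DNase I before an EDTA stop, and they cleaved during both steps. Reverse transcription with template switching preceded Illumina sequencing. Relative activity divides a variant's cleaved/total read fraction by the unmutated ribozyme's. At least 5 reads were required per variant, and three batches were averaged.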

Variant | self-cleavage
C50A U67C | 0.2
C50A U69A | 0.42
C50A U69C | 0.49
C50A U72C | 0.86
C50A U74C | 0.87
C50A U76A | 0.65
C50A U76C | 1.02
C50A U78C | 0.71
C50A U78G | 1.06
C50A U80A | 0.83
C50A U80C | 1.05
C50G | 0.8
C50G A56U | 0.45
C50G A57G | 0.51
C50G A75C | 0.54
C50G G61A | 0.27
C50G U51C | 0.68
C50G U69A | 0.17
C50G U69C | 0.14
C50G U72A | 0.58
C50G U72C | 0.75
C50G U78C | 0.71
C50U | 1.01
C50U A56G | 0.85

Variant | self-cleavage
C50U A56U | 0.82
C50U A64G | 0.99
C50U A64U | 0.52
C50U A65G | 0.4
C50U A75U | 1.22
C50U A77G | 1.11
C50U C79U | 1.16
C50U G52A | 0.99
C50U G61A | 0.55
C50U G63U | 0.82
C50U U51A | 1.17
C50U U51C | 0.8
C50U U54C | 0.77
C50U U54G | 0.74
C50U U58C | 0.35
C50U U66A | 0.22
C50U U66C | 0.45
C50U U67C | 0.31
C50U U69C | 0.41
C50U U72A | 0.28
C50U U72C | 1.13
C50U U76A | 0.94
C50U U76C | 0.98
C50U U78A | 1.12

Variant | self-cleavage
C50U U78C | 0.97
C50U U80C | 1.07
U51A | 1.05
U51A A56G | 0.5
U51A A56U | 0.68
U51A A57G | 0.56
U51A A57U | 0.53
U51A A64C | 0.51
U51A A64G | 0.93
U51A A64U | 0.46
U51A A65G | 0.48
U51A A65U | 0.21
U51A A75G | 0.86
U51A A75U | 1.03
U51A A77G | 0.93
U51A A77U | 1.03
U51A C62A | 0.22
U51A C62G | 0.23
U51A C62U | 0.25
U51A C68A | 0.4
U51A C68U | 1.04
U51A C71U | 0.73
U51A C79G | 1.17
U51A C79U | 1.18

Variant | self-cleavage
U51A C81A | 1.1
U51A G52A | 1.21
U51A G52C | 1.09
U51A G52U | 1.16
U51A G53A | 1.27
U51A G55U | 1.08
U51A G61A | 1.01
U51A G63A | 1
U51A G63U | 1.15
U51A G70A | 0.61
U51A G73A | 1.15
U51A U54A | 1.04
U51A U54C | 1.07
U51A U54G | 0.43
U51A U58A | 0.3
U51A U58C | 0.54
U51A U60A | 0.64
U51A U60C | 0.59
U51A U66A | 0.51
U51A U66C | 0.42
U51A U67A | 0.59
U51A U67C | 0.4
U51A U67G | 0.43
U51A U69A | 0.64

Variant | self-cleavage
U51A U69C | 0.67
U51A U72A | 0.69
U51A U72C | 1.15
U51A U72G | 0.91
U51A U74A | 1.29
U51A U74C | 1.21
U51A U76A | 1.09
U51A U76C | 1.11
U51A U76G | 1.09
U51A U78A | 1
U51A U78C | 0.83
U51A U78G | 1.04
U51A U80A | 1.07
U51A U80C | 1
U51A U80G | 1.18
U51C | 1.04
U51C A56C | 0.31
U51C A56G | 0.84
U51C A56U | 0.74
U51C A57C | 0.44
U51C A57G | 0.91
U51C A57U | 0.44
U51C A64G | 0.81
U51C A64U | 0.42

Variant | self-cleavage
U51C A65G | 0.56
U51C A65U | 0.27
U51C A75C | 1.21
U51C A75G | 1.01
U51C A75U | 0.98
U51C A77C | 0.98
U51C A77G | 1.08
U51C A77U | 0.95
U51C C59A | 0.29
U51C C59U | 0.68
U51C C62A | 0.31
U51C C62G | 0.39
U51C C62U | 0.31
U51C C68G | 0.69
U51C C68U | 1.14
U51C C71A | 0.53
U51C C71U | 0.62
U51C C79A | 1.24
U51C C81A | 1.18
U51C C81U | 1.15
U51C G52A | 1.15
U51C G52C | 1
U51C G52U | 0.94
U51C G53A | 1.18

Variant | self-cleavage
U51C G53C | 1.01
U51C G53U | 1.2
U51C G55A | 0.75
U51C G55U | 0.73
U51C G61A | 0.71
U51C G61C | 0.25
U51C G63A | 0.61
U51C G63U | 1.07
U51C G70A | 0.47
U51C G73A | 1.24
U51C U54A | 1.03
U51C U54C | 1.07
U51C U54G | 0.82
U51C U58A | 0.25
U51C U58C | 0.37
U51C U60A | 0.49
U51C U60C | 0.36
U51C U60G | 0.4
U51C U66A | 0.65
U51C U66C | 0.49
U51C U67A | 0.56
U51C U67C | 0.4
U51C U67G | 0.38
